Data set [1] addresses T1, CFHR1 (complement factor H-related protein 1), purified from serum (human, UniProt Q03591 19-330).
T1 construct: Native protein purified from human serum or plasma and described as a native dimer; In serum it also forms heterodimers with CFHR2 and CFHR5; also called serum-derived CFHR1; serum-purified CFHR1
T1 sequence: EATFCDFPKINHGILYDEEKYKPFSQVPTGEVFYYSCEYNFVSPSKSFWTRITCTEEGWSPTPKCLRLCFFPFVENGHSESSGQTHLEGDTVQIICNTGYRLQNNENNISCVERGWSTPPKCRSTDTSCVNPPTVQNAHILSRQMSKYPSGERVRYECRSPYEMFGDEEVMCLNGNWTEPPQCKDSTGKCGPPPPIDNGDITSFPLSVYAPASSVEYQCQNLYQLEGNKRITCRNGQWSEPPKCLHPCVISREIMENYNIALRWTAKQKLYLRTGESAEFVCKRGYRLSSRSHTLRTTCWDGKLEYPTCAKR
In words: serum immunoprecipitation with anti-CFHR2, western blot with MBC125. From the text:
Serum was immunoprecipitated using a specific anti-CFHR2 antibody (MBC22) and western blot analysis of the immunoprecipitated material with anti-CFHR1/2/5 antibody (MBC125) performed. […] Lane 2 and 4 represent control sera in which no anti-CFHR2 antibody was used. The detection of CFHR2-CFHR5 heterodimers was not possible due to non-specific bands in the CFHR5 region. […] Serum was immunoprecipitated using an anti-CFHR5 antibody and western blot analysis of the immunoprecipitated material with anti-CFHR1/2/5 antibody performed. […] Lane 2 and 4 represent control sera in which no anti-CFHR5 antibody was used. The detection of CFHR2-CFHR5 heterodimers was not possible due to non-specific bands in the CFHR2 region. FIG. 2(d) ELISA assay to detect CFHR2-CFHR5 heterodimers in vivo. Using an anti-CFHR5 capture antibody and an anti-CFHR2 detection antibody, positive signal was demonstrable in two individuals homozygous for the ΔCFHR3-1 deletion polymorphism. A much weaker signal was detectable in individuals without this deletion.
Detection of heterodimers CFHR1-CFHR2 and CFHR1-CFHR5 were identified by immunoprecipitation. […]
For orientation: In western blotting, separated proteins are transferred to a membrane and probed.

The data set “X-ray crystal structure” deals with the molecule itself. Kind of data set: X-ray crystal structure. As for the experimental part:
Crystals were grown using the sitting drop vapour diffusion method from 0.2 μL, protein+0.2 μL mother liquor drops at […] using protein stocks at A280=3.3 and 7.8 for CFHR112 and CFHR234 respectively. CFHR112 crystals grew from a mother liquor containing 36% PEG 2000 MME, 0.1M MES pH 6.5. CFHR234 crystals grew in 30% PEG 8000, 0.2M ammonium sulphate. Crystals were plunge cooled in liquid nitrogen following cryoprotection in 20% and 15% ethylene glycol for CFHR112 and CFHR234, respectively. Data were collected at both the ESRF and DIAMOND using the rotation method with oscillation ranges of 0.150 or 0.20 at 120 K. CFHR112 data were collected at beamline ID29 (ESRF, Grenoble) with λ=1.7105 Å. CFHR234 data were collected at beamline I04-1 (DIAMOND, UK) with λ=0.9173 Å. Data were integrated and scaled using XIA2 19 with the −3dii option to enforce usage of XDS 20 for integration and SCALA for scaling 21.

The next data set deals with T2, C5 (UniProt P01031 19-673; P01031 678-1676, limits assumed).
T2 construct: also called complement C5
In words: SPR, CFHR112 immobilised (750 RU), C5 flowed.

Data set [2] deals with T3, C3b (UniProt P01024 749-1663; P01024 23-667). In words: cell-based or functional assay.
Data set [3] concerns the target T3, C3b. Kind of data set: SPR steady state, thioester-coupled (clustered) C3b against amine-coupled C3b. How it is done:
FIG. 9(a) Binding of CFHR5 and CFH to low levels of C3b coupled through amine groups (no clustering of C3b). CFH (from 4 μM) or CFHR5 (from 6.6 μM) were flowed across immobilized C3b (400 RU) at different concentrations. Affinity was calculated by steady state analysis. Analysis assumes a 1:1 binding interaction and for CFHR5 calculations used molarity of binding sites. FIG. 9(b) Binding to C3b coupled through the thiolester. C3b (150RU) was amine-coupled to a CM5 Biacore chip and used as a nidus for convertase formation. Further C3b was deposited on the chip surface by flowing fB and fD to form C3bBb followed by C3 as convertase substrate. […] CFH (from 4 μM) and CFHR5 (from 1.35 μM) were flowed across the surface and binding was analysed at steady state. Binding of CFH was very heterogeneous, likely due to crosslinking between multiple C3b-binding sites on fH and clusters of deposited C3b molecules. Affinity could not be calculated under these conditions. […] Data were calculated using the following values: CFH, mass 155 kDa, extinction coefficient 1.95 cm-1 (mg/mL)-1; CFHR5, mass 65 kDa, extinction coefficient 1.55 cm-1 (mg/mL)-1;
All data in FIGS. 9-11 were gathered using a Biacore T100 (GE Healthcare). […] For kinetic studies, samples were injected using the KINJECT command, in HBS/P (10 mM HEPES pH7.4, 150 mM NaCl, 0.05% surfactant-P20) flowed at 30 μl/min and analysed at 25° C. […]

Data set [4] concerns the molecule itself. In words: size exclusion chromatography. From the text: FIG. 3(a) Generation of a CFHR5 protein lacking critical amino acids within the dimerisation motif. Monomeric CFHR5 (CFHR5^{dimer mutant}) was generated by mutating the three stabilizing amino acids (Tyr34Ser, Ser36 Tyr, Tyr39Glu) within the dimerisation motif to the corresponding amino acids within CFH. FIG. 3(b) Analysis of recombinant CFHR5 and CFHR5^{dimer mutant} using SDS PAGE gel electrophoresis. Both the wild type and dimer mutants were purified to single homogenous species as visualized by denaturing electrophoresis. FIG. 3(c) Analysis of recombinant CFHR5 and CFHR5^{dimer mutant} using size exclusion chromatography. Size exclusion chromatography was performed on a Superdex200 10/30 column (GE Healthcare) equilibrated in 50 mM Tris.HCl, pH 7.5, 150 mM NaCl at 0.4 ml/min. The column was followed in-line by an Optilab-Rex refractive index monitor (Wyatt Technologies). The CFHR5 dimer elutes early from the column (blue trace) whilst the monomeric CFHR5^{dimer mutant} protein elutes at a larger column volume (red trace). FIG. 3(d) Interaction of CFHR5 and CFHR5^{dimer mutant} with renal-bound mouse C3 in vivo.
For orientation: Size exclusion chromatography separates by hydrodynamic size, large species first.

The target of another data set is T4, iC3b (UniProt P01024 23-667; P01024 749-1303; P01024 1321-1663).
T4 construct: also called thioester-coupled iC3b
Kind of data set: SPR steady state, iC3b on chip; reference CFHR5.

T3 sequence (P01024 749-1663 limits assumed, chain 1 of 2): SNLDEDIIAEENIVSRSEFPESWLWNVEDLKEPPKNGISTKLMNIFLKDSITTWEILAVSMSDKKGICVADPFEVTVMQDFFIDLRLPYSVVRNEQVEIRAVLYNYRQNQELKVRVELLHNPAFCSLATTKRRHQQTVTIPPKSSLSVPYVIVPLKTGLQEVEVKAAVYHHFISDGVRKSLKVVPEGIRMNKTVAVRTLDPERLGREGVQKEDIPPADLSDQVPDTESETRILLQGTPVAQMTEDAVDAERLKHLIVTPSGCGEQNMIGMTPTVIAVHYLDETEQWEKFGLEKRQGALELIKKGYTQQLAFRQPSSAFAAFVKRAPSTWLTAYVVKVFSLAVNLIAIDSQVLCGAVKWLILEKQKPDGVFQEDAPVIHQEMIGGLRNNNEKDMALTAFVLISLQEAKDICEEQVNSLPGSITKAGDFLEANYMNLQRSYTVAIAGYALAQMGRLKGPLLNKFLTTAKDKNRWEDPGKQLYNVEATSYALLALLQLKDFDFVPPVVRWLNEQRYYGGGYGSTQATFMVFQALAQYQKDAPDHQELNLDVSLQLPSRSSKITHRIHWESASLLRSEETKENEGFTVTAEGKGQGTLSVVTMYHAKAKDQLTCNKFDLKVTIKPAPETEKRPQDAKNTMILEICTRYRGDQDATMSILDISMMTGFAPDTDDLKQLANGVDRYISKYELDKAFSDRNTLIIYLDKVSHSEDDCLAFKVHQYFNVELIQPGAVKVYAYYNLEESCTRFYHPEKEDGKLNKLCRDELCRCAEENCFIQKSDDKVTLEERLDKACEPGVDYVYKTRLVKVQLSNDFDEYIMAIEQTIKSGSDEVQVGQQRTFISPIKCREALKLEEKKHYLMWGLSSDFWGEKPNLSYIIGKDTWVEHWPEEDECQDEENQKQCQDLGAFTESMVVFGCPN
T3 sequence (P01024 23-667 limits assumed, chain 2 of 2): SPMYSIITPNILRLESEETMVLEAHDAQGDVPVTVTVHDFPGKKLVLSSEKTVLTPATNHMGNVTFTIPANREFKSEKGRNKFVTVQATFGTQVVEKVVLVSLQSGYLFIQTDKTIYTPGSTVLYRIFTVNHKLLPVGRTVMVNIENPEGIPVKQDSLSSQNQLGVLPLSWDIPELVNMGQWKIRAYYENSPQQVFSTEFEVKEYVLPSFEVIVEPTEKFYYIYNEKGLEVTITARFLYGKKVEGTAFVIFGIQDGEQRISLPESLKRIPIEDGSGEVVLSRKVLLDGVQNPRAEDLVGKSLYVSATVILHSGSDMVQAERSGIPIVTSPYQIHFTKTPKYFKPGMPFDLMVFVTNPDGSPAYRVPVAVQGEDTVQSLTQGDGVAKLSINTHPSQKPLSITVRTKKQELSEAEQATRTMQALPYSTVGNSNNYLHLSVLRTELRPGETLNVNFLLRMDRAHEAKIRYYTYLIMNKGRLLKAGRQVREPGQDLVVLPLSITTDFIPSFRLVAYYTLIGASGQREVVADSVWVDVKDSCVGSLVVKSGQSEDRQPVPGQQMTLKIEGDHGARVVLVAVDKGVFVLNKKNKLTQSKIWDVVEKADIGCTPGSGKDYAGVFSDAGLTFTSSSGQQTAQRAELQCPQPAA
T2 sequence (P01031 19-673 limits assumed, chain 1 of 2): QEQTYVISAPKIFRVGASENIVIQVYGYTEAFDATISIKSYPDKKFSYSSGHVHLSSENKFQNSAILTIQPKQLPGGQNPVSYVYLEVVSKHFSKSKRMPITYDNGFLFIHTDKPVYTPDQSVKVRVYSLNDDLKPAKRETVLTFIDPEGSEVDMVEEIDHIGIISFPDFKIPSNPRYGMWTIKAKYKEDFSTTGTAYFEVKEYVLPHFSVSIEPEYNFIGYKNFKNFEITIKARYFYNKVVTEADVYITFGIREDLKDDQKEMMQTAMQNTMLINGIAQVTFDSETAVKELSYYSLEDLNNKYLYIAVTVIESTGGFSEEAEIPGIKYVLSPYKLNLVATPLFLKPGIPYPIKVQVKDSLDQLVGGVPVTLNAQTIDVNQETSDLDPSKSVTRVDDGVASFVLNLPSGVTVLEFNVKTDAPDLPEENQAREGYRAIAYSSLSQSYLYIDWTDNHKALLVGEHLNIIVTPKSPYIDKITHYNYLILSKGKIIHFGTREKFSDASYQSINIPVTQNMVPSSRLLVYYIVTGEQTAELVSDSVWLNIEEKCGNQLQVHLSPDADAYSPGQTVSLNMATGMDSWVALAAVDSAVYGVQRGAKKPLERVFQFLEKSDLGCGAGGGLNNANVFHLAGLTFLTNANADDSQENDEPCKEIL
T2 sequence (P01031 678-1676 limits assumed, chain 2 of 2): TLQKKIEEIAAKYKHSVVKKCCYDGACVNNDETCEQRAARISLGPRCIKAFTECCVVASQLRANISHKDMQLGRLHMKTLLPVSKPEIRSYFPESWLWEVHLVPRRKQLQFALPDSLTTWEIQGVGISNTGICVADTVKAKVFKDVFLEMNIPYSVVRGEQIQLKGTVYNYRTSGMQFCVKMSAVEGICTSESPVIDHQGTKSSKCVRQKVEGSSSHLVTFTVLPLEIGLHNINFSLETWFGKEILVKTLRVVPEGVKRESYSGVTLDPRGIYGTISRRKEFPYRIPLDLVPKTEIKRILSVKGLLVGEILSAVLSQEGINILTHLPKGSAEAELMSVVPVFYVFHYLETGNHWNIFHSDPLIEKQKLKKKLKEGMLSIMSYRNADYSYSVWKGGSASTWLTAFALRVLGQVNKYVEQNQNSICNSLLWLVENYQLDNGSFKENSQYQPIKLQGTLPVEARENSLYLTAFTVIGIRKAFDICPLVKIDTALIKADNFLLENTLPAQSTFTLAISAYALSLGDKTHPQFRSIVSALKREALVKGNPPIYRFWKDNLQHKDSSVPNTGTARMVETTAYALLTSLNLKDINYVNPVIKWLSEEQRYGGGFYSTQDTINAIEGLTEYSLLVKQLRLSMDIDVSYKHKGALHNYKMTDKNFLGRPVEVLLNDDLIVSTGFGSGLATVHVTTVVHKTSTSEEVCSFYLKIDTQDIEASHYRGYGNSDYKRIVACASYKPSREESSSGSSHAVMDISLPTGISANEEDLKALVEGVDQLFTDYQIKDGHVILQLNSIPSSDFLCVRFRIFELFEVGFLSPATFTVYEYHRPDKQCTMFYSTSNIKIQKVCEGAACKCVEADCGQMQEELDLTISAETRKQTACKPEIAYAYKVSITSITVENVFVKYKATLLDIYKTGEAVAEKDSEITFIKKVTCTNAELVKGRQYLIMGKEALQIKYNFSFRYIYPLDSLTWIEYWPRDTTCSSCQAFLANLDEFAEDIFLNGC
T4 sequence (P01024 23-667, chain 1 of 3): as the sequence (P01024 23-667 limits assumed, chain 2 of 2) above
T4 sequence (P01024 749-1303, chain 2 of 3): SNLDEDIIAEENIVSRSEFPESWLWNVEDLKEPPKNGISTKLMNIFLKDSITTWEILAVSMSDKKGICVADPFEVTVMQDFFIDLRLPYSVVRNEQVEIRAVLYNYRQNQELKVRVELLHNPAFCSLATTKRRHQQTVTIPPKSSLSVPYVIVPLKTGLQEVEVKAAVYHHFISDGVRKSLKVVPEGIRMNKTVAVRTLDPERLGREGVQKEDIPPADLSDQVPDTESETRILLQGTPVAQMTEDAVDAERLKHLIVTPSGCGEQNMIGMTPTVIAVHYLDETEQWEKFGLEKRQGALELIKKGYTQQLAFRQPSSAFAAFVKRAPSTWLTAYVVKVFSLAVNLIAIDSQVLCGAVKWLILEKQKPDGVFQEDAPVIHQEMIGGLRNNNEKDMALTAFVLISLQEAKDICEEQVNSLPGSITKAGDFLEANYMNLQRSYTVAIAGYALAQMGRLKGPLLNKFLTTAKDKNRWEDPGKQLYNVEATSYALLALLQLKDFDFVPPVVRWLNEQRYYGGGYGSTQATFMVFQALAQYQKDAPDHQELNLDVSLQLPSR
T4 sequence (P01024 1321-1663, chain 3 of 3): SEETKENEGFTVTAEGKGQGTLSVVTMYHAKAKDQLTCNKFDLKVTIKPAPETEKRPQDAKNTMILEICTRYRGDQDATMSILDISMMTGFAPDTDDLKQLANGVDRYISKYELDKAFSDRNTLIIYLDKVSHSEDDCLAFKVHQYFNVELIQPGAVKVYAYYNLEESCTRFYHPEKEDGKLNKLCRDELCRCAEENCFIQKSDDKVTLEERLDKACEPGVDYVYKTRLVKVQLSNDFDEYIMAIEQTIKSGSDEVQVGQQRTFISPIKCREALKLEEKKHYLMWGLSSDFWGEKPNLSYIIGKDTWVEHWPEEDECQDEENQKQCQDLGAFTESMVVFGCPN

B1: CFHR2 (complement factor H-related protein 2), native in serum (other)
chain: EAMFCDFPKINHGILYDEEKYKPFSQVPTGEVFYYSCEYNFVSPSKSFWTRITCAEEGWSPTPKCLRLCFFPFVENGHSESSGQTHLEGDTVQIICNTGYRLQNNENNISCVERGWSTPPKCRSTISAEKCGPPPPIDNGDITSFLLSVYAPGSSVEYQCQNLYQLEGNNQITCRNGQWSEPPKCLDPCVISQEIMEKYNIKLKWTNQQKLYSRTGDIVEFVCKSGYHPTKSHSFRAMCQNGKLVYPSCEEK
notes: Native serum protein
Take B1: the binding result in data set [1] is reported as “binds”.

B2: CFHR112 (recombinant first two SCR domains of CFHR1) (other)
chain: EATFCDFPKINHGILYDEEKYKPFSQVPTGEVFYYSCEYNFVSPSKSFWTRITCTEEGWSPTPKCLRLCFFPFVENGHSESSGQTHLEGDTVQIICNTGYRLQNNENNISCVERGWSTPPKCRST
notes: Head-to-tail homodimer in crystal and in solution; also called CFHR1,2; recombinant CFHR1 domains 1 and 2
B2: the results for the binding result in “X-ray crystal structure” and with C5 were “binds” and “no binding”, respectively.

B3: CFHR5 (complement factor H-related protein 5), wild type (other)
chain: EGTLCDFPKIHHGFLYDEEDYNPFSQVPTGEVFYYSCEYNFVSPSKSFWTRITCTEEGWSPTPKCLRMCSFPFVKNGHSESSGLIHLEGDTVQIICNTGYSLQNNEKNISCVERGWSTPPICSFTKGECHVPILEANVDAQPKKESYKVGDVLKFSCRKNLIRVGSDSVQCYQFGWSPNFPTCKGQVRSCGPPPQLSNGEVKEIRKEEYGHNEVVEYDCNPNFIINGPKKIQCVDGEWTTLPTCVEQVKTCGYIPELEYGYVQPSVPPYQHGVSVEVNCRNEYAMIGNNMITCINGIWTELPMCVATHQLKRCKIAGVNIKTLLKLSGKEFNHNSRIRYRCSDIFRYRHSVCINGKWNPEVDCTEKREQFCPPPPQIPNAQNMTTTVNYQDGEKVAVLCKENYLLPEAKEIVCKDGRWQSLPRCVESTAYCGPPPSINNGDTTSFPLSVYPPGSTVTYRCQSFYKLQGSVTVTCRNKQWSEPPRCLDPCVVSEENMNKNNIQLKWRNDGKLYAKTGDAVEFQCKFPHKAMISSPPFRAICQEGKFEYPICE
notes: Recombinant full-length protein from HEK293 cells, a dimer by size exclusion; The same id is used for native serum CFHR5 in the heterodimer experiments; also called recombinant CFHR5; wild-type CFHR5
Regarding B3, the “IC50, dose-dependent increase of lysis in the CFH-dependent alternative pathway haemolytic assay (guinea-pig erythrocytes, 20% normal human serum plus CFH)” value in the data set with C3b [2] was found to be 150 nM. Besides, the “fold tighter binding to thioester-coupled C3b than to amine-coupled C3b” value in the data set with C3b [3] was found to be 10 fold. Besides, the binding result in data set [4] is given as “binds”.

B4: Complement factor H (CFH) (other, UniProt P08603 19-1231, looked up)
chain: EDCNELPPRRNTEILTGSWSDQTYPEGTQAIYKCRPGYRSLGNVIMVCRKGEWVALNPLRKCQKRPCGHPGDTPFGTFTLTGGNVFEYGVKAVYTCNEGYQLLGEINYRECDTDGWTNDIPICEVVKCLPVTAPENGKIVSSAMEPDREYHFGQAVRFVCNSGYKIEGDEEMHCSDDGFWSKEKPKCVEISCKSPDVINGSPISQKIIYKENERFQYKCNMGYEYSERGDAVCTESGWRPLPSCEEKSCDNPYIPNGDYSPLRIKHRTGDEITYQCRNGFYPATRGNTAKCTSTGWIPAPRCTLKPCDYPDIKHGGLYHENMRRPYFPVAVGKYYSYYCDEHFETPSGSYWDHIHCTQDGWSPAVPCLRKCYFPYLENGYNQNYGRKFVQGKSIDVACHPGYALPKAQTTVTCMENGWSPTPRCIRVKTCSKSSIDIENGFISESQYTYALKEKAKYQCKLGYVTADGETSGSITCGKDGWSAQPTCIKSCDIPVFMNARTKNDFTWFKLNDTLDYECHDGYESNTGSTTGSIVCGYNGWSDLPICYERECELPKIDVHLVPDRKKDQYKVGEVLKFSCKPGFTIVGPNSVQCYHFGLSPDLPICKEQVQSCGPPPELLNGNVKEKTKEEYGHSEVVEYYCNPRFLMKGPNKIQCVDGEWTTLPVCIVEESTCGDIPELEHGWAQLSSPPYYYGDSVEFNCSESFTMIGHRSITCIHGVWTQLPQCVAIDKLKKCKSSNLIILEEHLKNKKEFDHNSNIRYRCRGKEGWIHTVCINGRWDPEVNCSMAQIQLCPPPPQIPNSHNMTTTLNYRDGEKVSVLCQENYLIQEGEEITCKDGRWQSIPLCVEKIPCSQPPQIEHGTINSSRSSQESYAHGTKLSYTCEGGFRISEENETTCYMGKWSSPPQCEGLPCKSPPEISHGVVAHMSDSYQYGEEVTYKCFEGFGIDGPAIAKCLGEKWSHPPSCIKTDCLSLPSFENAIPMGEKKDVYKAGEQVTYTCATYYKMDGASNVTCINSRWTGRPTCRDTSCVNPPTVQNAYIVSRQMSKYPSGERVRYQCRSPYEMFGDEEVMCLNGNWTEPPQCKDSTGKCGPPPPIDNGDITSFPLSVYAPASSVEYQCQNLYQLEGNKRITCRNGQWSEPPKCLHPCVISREIMENYNIALRWTAKQKLYSRTGESVEFVCKRGYRLSSRSHTLRTTCWDGKLEYPTCAKR
Regarding B4, the “fold weaker binding than CFHR5” value in the data set with iC3b amounted to 10 fold.

For the origin of these results see patent US20150361183A1 (IMPERIAL INNOVATIONS, published 2015).
